Experimental data: US20230331827A1, “POTASSIUM CHANNEL INHIBITORS” (priority 2017, published 2023)
Residue numbers refer to the chain shown, from its start. In names and notes the source's numbering stands.

B1: KB_A12_KTX (antibody)
VH: EVQLVESGGGLVRPGGSLRLSCAASGFTFSSYAMSWVRQAPGKGLEWVSAISGSGGSTYYADSVKGRFTISRDNTKNSLYLQMTSLRADDTAFYYCVKDFGPGYGTGWFDYWGPGTLVTVSS
VL: QSVLTQPPSVSEAPRQRVTITCSGSSSNIGNNAVNWYQQLPGKAPKLLIYAAGRGVEINVKCSGSPQCLKPCKDAGMRFGKCMNRKCHCTPKANSGVSDRFSAAKSGTSASLAINGLRSEDEADYYCAAWDDSLNGYVFGTGTKLTVLGQP
B2: KB_A12_ShK (antibody, V domains shown)
VH: B1 VH
VL: NWYQQLPGKAPKLLIYAAGRRSCIDTIPKSRCTAFQCKHSMKYRLSFCRKTCGTCANSGVSDRFSAAKSGTSASLAINGLRSEDEADYYCAAWDDSLNGYVFGTGTKLTVLG
B3: KB_A12_HsTx1 (antibody, V domains shown)
VH: B1 VH
VL: NWYQQLPGKAPKLLIYAAGRASCRTPKDCADPCRKETGCPYGKCMNRKCKCNRCANSGVSDRFSAAKSGTSASLAINGLRSEDEADYYCAAWDDSLNGYVFGTGTKLTVLG
B4: KB_A07_HsTx1 (antibody, V domains shown)
VH: B1 VH
VL: NWYQQKPGKAPKLLIYAAGVASCRTPKDCADPCRKETGCPYGKCMNRKCKCNRCSRSGVPSRFSGSGSGTDFTLTISSLQPEDFATYYCQQGASPPYTFGQGTKVEIKR
B5: KB_A12_ADWX1 (antibody, V domains shown)
VH: B1 VH
VL: QSVLTQPPSVSEAPRQRVTITCSGSSSNIGNNAVNWYQQLPGKAPKLLIYAAGRVGINVKCKHSRQCLKPCKDAGMRFGKCTNGKCHCTPKANSGVSDRFSAAKSGTSASLAINGLRSEDEADYYCAAWDDSLNGYVFGTGTKLTVLG
B6: KB_A12_ADWX1 short (antibody, V domains shown)
VH: B1 VH
VL: NWYQQLPGKAPKLLIYAAGRVKCKHSRQCLKPCKDAGMRFGKCTNGKCHCTPKANSGVSDRFSAAKSGTSASLAINGLRSEDEADYYCAAWDDSLNGYVFGTGTKLTVLG
B7: KB_A12_AnTx-N17A/F32T (antibody, V domains shown)
VH: B1 VH
VL: QSVLTQPPSVSEAPRQRVTITCSGSSSNIGNNAVNWYQQLPGKAPKLLIYAAGRQKECTGPQHCTNFCRKAKCTHGKCMNRKCKCTNCKANSGVSDRFSAAKSGTSASLAINGLRSEDEADYYCAAWDDSLNGYVFGTGTKLTVLG
B8: KB_A12_Odk2 (antibody, V domains shown)
VH: B1 VH
VL: QSVLTQPPSVSEAPRQRVTITCSGSSSNIGNNAVNWYQQLPGKAPKLLIYAAGRGVPTDVKCRGSPQCIQPCKDAGMRFGKCMNGKCHCTPKANSGVSDRFSAAKSGTSASLAINGLRSEDEADYYCAAWDDSLNGYVFGTGTKLTVLG
B9: KB_A12_Odk2 short (antibody, V domains shown)
VH: B1 VH
VL: B6 VL with K24R, H25G, R27P, L30I, K31Q, T44M
B10: KB_A12_Vm24 (antibody, V domains shown)
VH: B1 VH
VL: QSVLTQPPSVSEAPRQRVTITCSGSSSNIGNNAVNWYQQLPGKAPKLLIYAAGRAAAISCVGSPECPPKCRAQGCKNGKCMNRKCKCYYCANSGVSDRFSAAKSGTSASLAINGLRSEDEADYYCAAWDDSLNGYVFGTGTKLTVLG
B11: KB_A07 IgG1 (EETI-II fusion) (antibody, V domains shown)
VH: B1 VH
VL: YLNWYQQKPGKAPKLLIYAAGVCPRILMRCKQDSDCLAGCVCGPNGFCGSRSGVPSRFSGSGSGTDFTLTISSLQPEDFATYYCQQGASPPYTFGQGTKVEIKR
B12: KB_A12 IgG1 (EETI-II fusion) (antibody, V domains shown)
VH: B1 VH
VL: AVNWYQQLPGKAPKLLIYAAGRCPRILMRCKQDSDCLAGCVCGPNGFCGANSGVSDRFSAAKSGTSASLAINGLRSEDEADYYCAAWDDSLNGYVFGTGTKLTVLG
B13: C09 (EET 5-3 KnotBody) (scFv, V domains shown)
VH: B1 VH
VL: SEAPRQRVTITCGGKRCGPNGFCGSGSDGGVCPRILMRCKQDSDCLAGCTSNWYQQKPGQAPVLVVQDDSVRPSGIPERFSGSNSGNTATLTISRVEAGDGADYYCQVWDISSDLGVFGGGTKLTVLG
B14: E01 (EET 5-3 KnotBody) (scFv, V domains shown)
VH: B1 VH
VL: AVNWYQQLPGKAPKLLIYAAGGCGPNGFCGSGSDGGVCPRILMRCKQDSDCLAGCGIHSGVSDRFSDSKSGTSASLAISGLQSEDEADYYCAAWDDSLNGYVFGTGTKLTVLG
B15: E08 (EET 5-3 KnotBody) (scFv, V domains shown)
VH: B1 VH
VL: B14 VL with H58Q, V61I, S62P, D63E, D67G, Q82R, S97N, N99S
B16: E05 (EET 5-3 KnotBody) (scFv, V domains shown)
VH: B1 VH
VL: B14 VL with I57A, H58Q, V61I, S62P, D63E, D67G, D88H, L109V
B17: F01 (EET 5-3 KnotBody) (scFv, V domains shown)
VH: B1 VH
VL: YLNWYQQKPGKAPKLLIDAAGECGPNGFCGSGSDGGVCPRINMRCKQDSDCLAGCGRDSGVPSRFSGSGSGTDFTLTISSLQPEDFATYYCQQSYSTPWTFGQGTKVEIKR
B18: E03 (EET 5-3 KnotBody) (scFv, V domains shown)
VH: B1 VH
VL: AVNWYQQLPGKAPKLLIYAAGGCGPNGFCGSGSDGGVCPRILMRCKQDSDCLAGCGRNSGIPERFSGSKSGHTATLTISRVEAGDEADYYCQVWDSSSDHVLFGGGTKLTVLG
B19: F07 (EET 5-3 KnotBody) (scFv, V domains shown)
VH: B1 VH
VL: B14 VL with I57G, H58Q, S62P, D67G, G80R, G100A, L109V
B20: E09 (EET 5-3 KnotBody) (scFv, V domains shown)
VH: B1 VH
VL: B14 VL with I57T, H58Q, V61I, S62P, D63E, D67G, Q82R, N99R, G100A, K108Q
B21: F03 (EET 5-3 KnotBody) (scFv, V domains shown)
VH: B1 VH
VL: AVNWYQQLPGRAPKLLIYAAGGCGPNGFCGSGGDGGVCPRILMRCKQDSDCLAGCGAHSGIPERFSGSKSGTSASLAISGLRSEDEADYYCAAWDDSLNGWVFGGGTKVTVLG
B22: G11 (EET 5-3 KnotBody) (scFv, V domains shown)
VH: B1 VH
VL: AVNWYQQLPGKAPKLLIYAAGGCGPNGFCGSGSDGGVCPRILMRCKQDSDCLAGCGQSSGVSDRFSGSKSGTSATLDITGLQTGDEADYYCGTWDNSLSVGVFGGGTKVTVLG
B23: KB_A07 scFv-Fc displayed on HEK293 cells (Fc fusion)
VH: B1 VH
VL: DIQMTQSPSSLSASVGDRVTITCRASQSISSYLNWYQQKPGKAPKLLIYAAGVCPRILMRCKQDSDCLAGCVCGPNGFCGSRSGVPSRFSGSGSGTDFTLTISSLQPEDFATYYCQQGASPPYTFGQGTKVEIKRT

target: human Kv1.3 (human) (UniProt P22001); assay: cell-based or functional assay
Sequence (P22001 whole entry): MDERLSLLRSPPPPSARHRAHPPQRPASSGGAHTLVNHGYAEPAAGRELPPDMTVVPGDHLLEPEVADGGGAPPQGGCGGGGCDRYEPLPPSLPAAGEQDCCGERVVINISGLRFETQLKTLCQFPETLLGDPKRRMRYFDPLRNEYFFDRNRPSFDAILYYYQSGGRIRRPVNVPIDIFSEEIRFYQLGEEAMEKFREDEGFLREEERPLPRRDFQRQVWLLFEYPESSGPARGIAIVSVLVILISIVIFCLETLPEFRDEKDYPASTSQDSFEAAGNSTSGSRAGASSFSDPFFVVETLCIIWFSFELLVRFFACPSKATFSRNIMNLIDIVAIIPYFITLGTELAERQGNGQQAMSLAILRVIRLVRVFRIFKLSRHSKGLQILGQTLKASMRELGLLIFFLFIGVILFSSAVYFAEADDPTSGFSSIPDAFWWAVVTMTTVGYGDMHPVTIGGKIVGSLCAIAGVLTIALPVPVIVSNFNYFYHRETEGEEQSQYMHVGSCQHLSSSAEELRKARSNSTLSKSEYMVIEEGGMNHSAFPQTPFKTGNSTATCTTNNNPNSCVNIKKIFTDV

Compared with B1, B2 is 50-fold lower in IC50, huKv1.3 current, QPatch patch clamp: 430 nM for the first, 8.6 nM for the second.

B3 and B4 are within 1.5-fold of each other in IC50, huKv1.3 current, QPatch patch clamp: 3.9 nM for the first, 4.7 nM for the second.

First: B5
Second: B6
The IC50, huKv1.3 current, QPatch patch clamp of the first is 1.6-fold higher: 270 nM for the first, 170 nM for the second.

Compared with B7, B8 is 2.6-fold higher in IC50, huKv1.3 current, QPatch patch clamp: 85 nM for the first, 222 nM for the second.

Compared with B9, B10 is 4-fold lower in IC50, huKv1.3 current, QPatch patch clamp: 64 nM for the first, 16 nM for the second.

target: T1, human ASIC1a (human) (UniProt P78348); assay: cell-based or functional assay
T1 sequence (looked up): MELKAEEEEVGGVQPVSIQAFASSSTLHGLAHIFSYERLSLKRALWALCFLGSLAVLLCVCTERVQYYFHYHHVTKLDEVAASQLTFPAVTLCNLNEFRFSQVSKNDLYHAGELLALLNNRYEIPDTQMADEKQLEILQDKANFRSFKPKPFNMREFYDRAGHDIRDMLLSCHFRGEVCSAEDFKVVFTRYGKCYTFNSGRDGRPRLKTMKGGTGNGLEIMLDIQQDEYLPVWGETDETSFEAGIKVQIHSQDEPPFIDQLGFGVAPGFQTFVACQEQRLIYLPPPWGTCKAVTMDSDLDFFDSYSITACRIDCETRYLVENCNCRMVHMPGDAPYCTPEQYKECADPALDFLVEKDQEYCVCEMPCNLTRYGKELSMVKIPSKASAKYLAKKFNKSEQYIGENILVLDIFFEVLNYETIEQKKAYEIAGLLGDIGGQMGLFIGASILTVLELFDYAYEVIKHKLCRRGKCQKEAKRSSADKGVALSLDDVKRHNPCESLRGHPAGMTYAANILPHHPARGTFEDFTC

In the case of B11, the % ASIC1a current remaining at 6 µM, QPatch is reported as 70.9%.

B12 showed a % ASIC1a current remaining at 3.3 µM, QPatch of 67.4%.

target: human Kv1.1 (human) (UniProt Q09470); assay: cell-based or functional assay
Sequence (Q09470 whole entry): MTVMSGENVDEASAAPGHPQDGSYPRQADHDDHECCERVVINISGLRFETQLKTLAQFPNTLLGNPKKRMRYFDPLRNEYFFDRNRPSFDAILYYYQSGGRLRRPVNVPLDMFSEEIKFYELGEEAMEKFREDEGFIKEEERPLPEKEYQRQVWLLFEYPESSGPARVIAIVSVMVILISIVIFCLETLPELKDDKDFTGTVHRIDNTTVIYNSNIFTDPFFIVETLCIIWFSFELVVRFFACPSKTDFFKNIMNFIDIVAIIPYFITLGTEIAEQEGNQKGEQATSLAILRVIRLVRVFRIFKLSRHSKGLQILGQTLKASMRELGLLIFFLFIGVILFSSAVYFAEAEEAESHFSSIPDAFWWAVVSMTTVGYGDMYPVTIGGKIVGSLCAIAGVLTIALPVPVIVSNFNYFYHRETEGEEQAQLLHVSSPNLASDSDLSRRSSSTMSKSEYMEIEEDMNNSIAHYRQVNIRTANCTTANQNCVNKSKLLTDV

B11 and B12 cannot be ordered by IC50, channel current, QPatch patch clamp: over 10000 nM for the first, over 10000 nM for the second.

First: B1
Second: B2
The Kv1.1 IC50, QPatch patch clamp of the first is 120-fold higher: 4800 nM for the first, 40 nM for the second.

Compared with B3, B6 is 2.2-fold higher in Kv1.1 IC50, QPatch patch clamp: 650 nM for the first, 1400 nM for the second.

Going from B7 to B8, the Kv1.1 IC50, QPatch patch clamp falls from 10300 nM to 2750 nM (3.7-fold).

Going from B9 to B10, the Kv1.1 IC50, QPatch patch clamp rises from 380 nM to 1220 nM (3.2-fold).

target: human Kv1.3 (human) (UniProt P22001); assay: cell-based or functional assay; remark: another data set of the same source

B11 and B12 cannot be ordered by IC50, channel current, QPatch patch clamp: over 10000 nM for the first, over 10000 nM for the second.

B11 and B1 cannot be ordered by IC50, huKv1.3 current, QPatch patch clamp: over 10000 nM for the first, over 10000 nM for the second.

First: B12
Second: B2
The IC50, huKv1.3 current, QPatch patch clamp of the first is higher: over 10000 nM for the first, 20 nM for the second.

B1 and B2 are the same in Fold difference (Kv1.1 IC50 against Kv1.3 IC50): 3 fold for the first, 3 fold for the second.

Compared with B3, B6 is lower in Fold difference (Kv1.1 IC50 against Kv1.3 IC50): 43 fold for the first, 6 fold for the second.

First: B7
Second: B8
The Fold difference (Kv1.1 IC50 against Kv1.3 IC50) of the first is higher: 94 fold for the first, 6 fold for the second.

First: B9
Second: B10
The Fold difference (Kv1.1 IC50 against Kv1.3 IC50) of the first is lower: 8 fold for the first, 102 fold for the second.

Going from B1 to B2, the Kv1.3 IC50, QPatch patch clamp falls from 1540 nM to 13 nM (120-fold).

First: B3
Second: B6
The Kv1.3 IC50, QPatch patch clamp of the first is 17-fold lower: 15 nM for the first, 251 nM for the second.

Going from B7 to B8, the Kv1.3 IC50, QPatch patch clamp rises from 110 nM to 457 nM (4.2-fold).

Compared with B9, B10 is 4.1-fold lower in Kv1.3 IC50, QPatch patch clamp: 49 nM for the first, 12 nM for the second.

target: trypsin; assay: monoclonal phage ELISA on trypsin

Going from B13 to B14, the ELISA signal rises from 9820 to 128000.

Compared with B15, B16 is lower in ELISA signal: 121000 for the first, 119000 for the second.

First: B17
Second: B18
The ELISA signal of the first is higher: 102000 for the first, 82500 for the second.

First: B19
Second: B20
The ELISA signal of the first is higher: 72800 for the first, 70300 for the second.

Going from B21 to B22, the ELISA signal falls from 68000 to 27600.

target: trypsin; assay: flow cytometry, biotinylated trypsin/streptavidin-APC

Work on B23 yielded a % of transfected HEK293 cells dual stained for Fc and trypsin of 34%.

target: trypsin; assay: flow cytometry of HEK293 cells displaying the scFv-Fc, 15 days post transfection after blasticidin selection; untransfected cells (panel C): Q2 0.043

Work on B23 yielded a Q2, share of cells stained by both anti-Fc-PE (FL2) and biotinylated trypsin/streptavidin-APC (FL4) of 33.8%.
